Assay [1] has as its target T1, human Y2 receptor (Homo sapiens, UniProt P49146).
T1 construct: expressed in transfected cells; membrane fraction
T1 sequence (P49146 1-381): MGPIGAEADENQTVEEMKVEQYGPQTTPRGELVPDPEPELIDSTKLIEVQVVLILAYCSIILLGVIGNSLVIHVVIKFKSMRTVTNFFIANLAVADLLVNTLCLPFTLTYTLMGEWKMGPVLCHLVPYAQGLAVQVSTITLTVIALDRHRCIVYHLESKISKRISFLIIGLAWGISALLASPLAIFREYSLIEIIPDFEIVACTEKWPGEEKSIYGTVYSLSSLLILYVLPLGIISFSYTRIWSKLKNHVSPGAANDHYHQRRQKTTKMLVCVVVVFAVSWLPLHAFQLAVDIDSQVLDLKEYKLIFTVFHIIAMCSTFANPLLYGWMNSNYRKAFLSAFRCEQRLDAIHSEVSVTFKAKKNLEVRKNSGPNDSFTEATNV
The experiment in a line: Human Y2 Receptor G Protein Binding Assay (GBA), [35S]GTPγS. Particulars: EC50 of test compound/EC50 of PYY(3-36) (PYY3-36 taken as 1), hY2R/CHO membrane fraction. It is filed as biochemical. An outline of the steps: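 Agonism measured as [35S]GTPγS binding, read by GF/C filtration and scintillation counting after 120 min at room temperature, using human Y2 membranes at 1 μg protein/mL in pH 7.4 Tris/MgCl2/NaCl/GDP buffer. Compound serially diluted 100 μM–1 nM; EC50 normalized to PYY(3-36) (ratio = compound/PYY).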
In general terms: GTPγS is a poorly hydrolysed GTP analogue; its binding reports G protein activation.

The target of assay [2] is T1, human Y2 receptor. The experiment in a line: Receptor Binding Assay (RBA) for Human Y2, [125I]-PYY displacement on hY2R/CHO membrane fraction. Particulars: IC50 of test compound/IC50 of PYY(3-36) (PYY(3-36) taken as 1). Summed up: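 Read-out is [125I]-PYY displacement from membranes of CHO/dhfr− cells stably transfected with human Y2R. Membranes were obtained by disrupting cells in a buffer of 10 mM NaHCO3, 5 mM EDTA and protease inhibitors.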

Non-standard residues stand in square brackets, D forms with d. No end group written: not given here. *: point of attachment. dHyp = O=C(O)[C@H]1C[C@H](O)CN1; Cha = N[C@@H](CC1CCCCC1)C(=O)O; Cit = NC(=O)NCCC[C@H](N)C(=O)O; dIva = CC[C@@](C)(N)C(=O)O; Isobutyryl = CC(C)C(=O)*; Aib = CC(C)(N)C(=O)O

The record followed here is US9260500B2, “Peptide and use thereof” (Takeda Pharmaceutical Company Limited, priority 2009, dated 2016).

Regarding “Ac-[D-Iva23, D-Pro24, Cha27,28,36, Aib31]-PYY(23-36) (Ac-[dIva][dP]RH[Cha][Cha]NL[Aib]TRQR[Cha]-NH2; SMILES CC[C@@](C)(NC(C)=O)C(=O)N1CCC[C@@H]1C(=O)N[C@@H](CCCNC(=N)N)C(=O)N[C@@H](Cc1c[nH]cn1)C(=O)N[C@@H](CC1CCCCC1)C(=O)N[C@@H](CC1CCCCC1)C(=O)N[C@@H](CC(N)=O)C(=O)N[C@@H](CC(C)C)C(=O)NC(C)(C)C(=O)N[C@H](C(=O)N[C@@H](CCCNC(=N)N)C(=O)N[C@@H](CCC(N)=O)C(=O)N[C@@H](CCCNC(=N)N)C(=O)N[C@@H](CC1CCCCC1)C(N)=O)[C@@H](C)O) [compound No. 183]”, in the assay with human Y2 receptor [1], the “GBA EC50 Ratio” value was determined as 31. Moreover, the “RBA IC50 Ratio” value with human Y2 receptor [2] came to 20.
As for “Isobutanoyl-[Asp23, D-Hyp24, Cha27,28,36, Aib31]-PYY(23-36) (Isobutyryl-D[dHyp]RH[Cha][Cha]NL[Aib]TRQR[Cha]-NH2; SMILES CC(C)C[C@H](NC(=O)[C@H](CC(N)=O)NC(=O)[C@H](CC1CCCCC1)NC(=O)[C@H](CC1CCCCC1)NC(=O)[C@H](Cc1c[nH]cn1)NC(=O)[C@H](CCCNC(=N)N)NC(=O)[C@H]1C[C@H](O)CN1C(=O)[C@H](CC(=O)O)NC(=O)C(C)C)C(=O)NC(C)(C)C(=O)N[C@H](C(=O)N[C@@H](CCCNC(=N)N)C(=O)N[C@@H](CCC(N)=O)C(=O)N[C@@H](CCCNC(=N)N)C(=O)N[C@@H](CC1CCCCC1)C(N)=O)[C@@H](C)O) [compound No. 127]”, in the assay with human Y2 receptor [1], the “GBA EC50 Ratio” value is given as 3.1. Besides, in the assay with human Y2 receptor [2], the “RBA IC50 Ratio” value is 2.6.
In the same order, the values of “Ac-[D-Pro24, Cit26, Cha27,28,36, Aib31]-PYY(23-36) (Ac-S[dP]R[Cit][Cha][Cha]NL[Aib]TRQR[Cha]-NH2; SMILES CC(=O)N[C@@H](CO)C(=O)N1CCC[C@@H]1C(=O)N[C@@H](CCCNC(=N)N)C(=O)N[C@@H](CCCNC(N)=O)C(=O)N[C@@H](CC1CCCCC1)C(=O)N[C@@H](CC1CCCCC1)C(=O)N[C@@H](CC(N)=O)C(=O)N[C@@H](CC(C)C)C(=O)NC(C)(C)C(=O)N[C@H](C(=O)N[C@@H](CCCNC(=N)N)C(=O)N[C@@H](CCC(N)=O)C(=O)N[C@@H](CCCNC(=N)N)C(=O)N[C@@H](CC1CCCCC1)C(N)=O)[C@@H](C)O) [compound No. 152]” are 1.7 and 5.5.
The corresponding values for “[Lys(Ac)23, D-Pro24, Cha27,28,36, Aib31]-PYY(23-36) (K(Ac)[dP]RH[Cha][Cha]NL[Aib]TRQR[Cha]-NH2; N-terminus assumed; SMILES CC(=O)NCCCC[C@H](N)C(=O)N1CCC[C@@H]1C(=O)N[C@@H](CCCNC(=N)N)C(=O)N[C@@H](Cc1c[nH]cn1)C(=O)N[C@@H](CC1CCCCC1)C(=O)N[C@@H](CC1CCCCC1)C(=O)N[C@@H](CC(N)=O)C(=O)N[C@@H](CC(C)C)C(=O)NC(C)(C)C(=O)N[C@H](C(=O)N[C@@H](CCCNC(=N)N)C(=O)N[C@@H](CCC(N)=O)C(=O)N[C@@H](CCCNC(=N)N)C(=O)N[C@@H](CC1CCCCC1)C(N)=O)[C@@H](C)O) [compound No. 163]” are 2.5 and 5.4.
Turning to “Ac-[D-Hyp24, Cha27,28,36, Aib31]-PYY(23-36) (Ac-S[dHyp]RH[Cha][Cha]NL[Aib]TRQR[Cha]-NH2; SMILES CC(=O)N[C@@H](CO)C(=O)N1C[C@@H](O)C[C@@H]1C(=O)N[C@@H](CCCNC(=N)N)C(=O)N[C@@H](Cc1c[nH]cn1)C(=O)N[C@@H](CC1CCCCC1)C(=O)N[C@@H](CC1CCCCC1)C(=O)N[C@@H](CC(N)=O)C(=O)N[C@@H](CC(C)C)C(=O)NC(C)(C)C(=O)N[C@H](C(=O)N[C@@H](CCCNC(=N)N)C(=O)N[C@@H](CCC(N)=O)C(=O)N[C@@H](CCCNC(=N)N)C(=O)N[C@@H](CC1CCCCC1)C(N)=O)[C@@H](C)O) [compound No. 114]”, the “GBA EC50 Ratio” value in the assay with human Y2 receptor [1] is 0.9. Also, in the assay with human Y2 receptor [2], the “RBA IC50 Ratio” value is given as 1.1.
